Assay [1] concerns the target T1, human CD123 (IL-3Rα, interleukin-3 receptor alpha chain) (human, UniProt P26951 19-378).
T1 construct: CD123 on human cell lines (TF-1, HNT-34, MOLM-13 and other AML, B-ALL, CML and NHL lines) or on 300-19 cells stably expressing human CD123; also called CD123 antigen; human CD123 antigen
Put plainly: flow cytometry on HNT-34 cells, against muCD123-3 of Example 5. (In general: A flow cytometer gives signals particle by particle.)

Assay [2] addresses T1, human CD123 (IL-3Rα, interleukin-3 …). Put plainly: flow cytometry on HNT-34 cells; apparent Kd.
The target is the same in assay [3]. Put plainly: cell-based or functional assay.
Assay [4] has the same target. Put plainly: flow cytometry on MOLM-13 cells; apparent Kd; MOLM-13 cells.
Assay [5] has as its target T2, IL3Rα (101-306) chimeric receptor protein: GMRα residues 1-114 fused to IL3Rα residues 101-306, His-tagged (human, UniProt P15509 23-114).
T2 construct: range 1-114; also called CRM domain of IL3Rα construct
T2 sequence: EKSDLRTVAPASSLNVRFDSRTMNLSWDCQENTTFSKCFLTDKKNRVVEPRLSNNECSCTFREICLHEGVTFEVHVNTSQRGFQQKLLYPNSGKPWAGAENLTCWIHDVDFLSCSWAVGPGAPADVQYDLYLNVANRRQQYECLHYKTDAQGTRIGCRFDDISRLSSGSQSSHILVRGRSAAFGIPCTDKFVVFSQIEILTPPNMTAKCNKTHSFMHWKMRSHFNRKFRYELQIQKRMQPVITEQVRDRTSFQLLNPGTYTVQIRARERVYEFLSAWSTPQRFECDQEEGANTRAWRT
Put plainly: ELISA on plate-coated His-tagged protein, A450. The procedure: (§1) The chimeric and humanized anti-IL3Rα antibodies were tested in enzyme-linked immunosorbent assay (ELISA) format for binding to the IL-3Rαproteins described above. Briefly, each His-tagged IL-3Rαprotein purified by Ni Sepharose excel chromatography was diluted to 1 ng/mL in 50 mM sodium bicarbonate buffer pH 9.6, and 100 μL was added to each well. After a 16 hr incubation at 4° C., the plates were washed with Tris-buffered saline with 0.1% Tween-20 (TBST), then blocked with 200 μL blocking buffer (TBS with 1% BSA). Next, 100 μL of primary antibody, serially diluted in blocking buffer, was added in duplicate to the ELISA wells and incubated at room temperature for 1 hr. The plates were then washed 3 times with TBST before adding 100 μL of anti-human IgG (H+L)-HRP (Jackson ImmunoResearch) to each well. Once again the plates were incubated for 1 hr at room temperature followed by three washes with TBST. Finally, 100 μL of TMB one component HRP microwell substrate (Surmodics) was added to each well and incubated for 5 min. The reaction was stopped by adding 100 μL stopping solution (Surmodics) and absorbances were read at 450 nm.
(§2) Binding of the CD123 antibodies to the chimeric IL-3Rαproteins was evaluated in comparison to the wild type IL-3Rα.
A general note: In an ELISA, binding on a coated surface is turned into a signal by an enzyme label.

Assay [6] concerns the target T3, extracellular domain of CD123/IL-3Rα (residues 1-306), histidine tagged (human, UniProt P26951 19-306).
T3 construct: Expressed in HEK 293T cells, purified on Ni Sepharose, coated on ELISA plates; also called wild type IL-3Rα; wild-type IL-3Rα construct
T3 sequence: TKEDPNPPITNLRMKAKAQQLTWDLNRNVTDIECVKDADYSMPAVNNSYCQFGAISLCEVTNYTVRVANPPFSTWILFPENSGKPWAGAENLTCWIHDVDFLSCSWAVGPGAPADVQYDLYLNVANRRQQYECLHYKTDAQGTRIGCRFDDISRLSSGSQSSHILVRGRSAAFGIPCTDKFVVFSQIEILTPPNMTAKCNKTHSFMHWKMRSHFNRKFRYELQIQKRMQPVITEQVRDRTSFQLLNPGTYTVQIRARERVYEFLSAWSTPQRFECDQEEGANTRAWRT
Put plainly: ELISA on plate-coated His-tagged protein, A450. The procedure:
as §1, §2

Assay [7] concerns the target T1, human CD123 (IL-3Rα, interleukin-3 …). Put plainly: flow cytometry on TF-1 cells; EC50 of the binding curve taken as apparent Kd.
Assay [8] shares this target. Put plainly: flow cytometry on HNT-34 cells; EC50 of the binding curve taken as apparent Kd.
Assay [9] shares this target. Put plainly: flow cytometry on HNT-34 cells, against muCD123-6 of Example 5.
Assay [10] addresses T4, IL3Rα (1-100) chimeric receptor protein: IL3Rα residues 1-100 fused to GMRα residues 115-325, His-tagged (human, UniProt P15509 115-325).
T4 construct: range 115-325; also called IL-3Rα N-terminal domain construct
T4 sequence: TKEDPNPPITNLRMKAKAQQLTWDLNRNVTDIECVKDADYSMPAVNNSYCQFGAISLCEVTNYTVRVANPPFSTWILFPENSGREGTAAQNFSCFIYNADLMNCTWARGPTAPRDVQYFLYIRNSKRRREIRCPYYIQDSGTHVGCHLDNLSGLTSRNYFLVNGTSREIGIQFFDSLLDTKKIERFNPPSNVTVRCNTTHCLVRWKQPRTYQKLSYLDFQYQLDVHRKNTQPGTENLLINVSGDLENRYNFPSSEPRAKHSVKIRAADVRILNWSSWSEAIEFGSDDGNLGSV
Put plainly: ELISA on plate-coated His-tagged protein, A450. The procedure: as §1, §2

The target in assay [11] is T1, human CD123 (IL-3Rα, interleukin-3 …). Put plainly: flow cytometry on HNT-34 cells, against muCD123-14 of Example 5.
The target is the same in assay [12]. Put plainly: flow cytometry on HNT-34 cells, apparent Kd against that of 7G3.
Assay [13] shares this target. Put plainly: flow cytometry on HNT-34 cells, PE-conjugated goat anti-human secondary.

Consider 7 molecules from US20180079819A1 (IMMUNOGEN, published 2018).

Where a chain is given by its changes, count along the chain named. “And” between values parts separate entries of the source, which are not always exact repeats. Equal values may be shown once.

B1: chCD123-3 (antibody, human IgG1, V domains shown)
VH: EFQLQQSGPEVVKPGASVKMSCKASGYTFTSYVMHWMKQKPGQGLEWIGYIKPYKDGTKYNEKFKGKATLISDKPSSTAYMELSSLTSEDSAVYYCAREGENGYYDAMDYWGQGTSVTVSS
VL: DIQMTQSPSSLSASLGGKVTITCKASQDINKYIAWYQHKPGKGPRLLIHYTSTLQPGIPSRFSGSGSGRDYSFSISNLEPEDIATYYCLQYDNLLYTFGGGTKLELKR
notes: human IgG1 and Kappa are spelled out for chCD123-6 and the same vectors and constant regions were used; also called chimeric CD123-3 antibody
For orientation: EC50 means the concentration at which the effect is half-maximal. Low readings indicate an effect from little substance, high ones a need for much substance. On to B1, for which the “fold difference of Kd from the murine counterpart” value (“fold difference of Kd” below) in assay [1] is at most 2.5 fold. Moreover, the Kd is 0.1 nM in assay [2] and 0.2 nM in assay [4]. The “IC50, inhibition of IL3-dependent proliferation of TF-1 cells” value in assay [3] is 0.1 nM. The EC50 in [5] is 0.852 nM; in [6], 0.274 nM.

B2: 7G3 (antibody, V domains shown)
VH: EVQLQQSGPELVKPGASVKMSCKASGYTFTDYYMKWVKQSHGKSLEWIGDIIPSNGATFYNQKFKGKATLTVDRSSSTAYMHLNSLTSEDSAVYYCTRSHLLRASWFAYWGQGTLVTVSA
VL: DFVMTQSPSSLTVTAGEKVTMSCKSSQSLLNSGNQKNYLTWYLQKPGQPPKLLIYWASTRESGVPDRFTGSGSGTDFTLTISSVQAEDLAVYYCQNDYSYPYTFGGGTKLEIKR
In the case of B2, the Kd in assay [2] is about 2 nM; in assay [7], 0.9 nM; in [8], 2 nM. Further, in assay [3], the “IC50, inhibition of IL-3 dependent proliferation of TF-1 cells” value is 0.33 nM and 0.2 nM.

B3: chCD123-6 (antibody, human IgG1, V domains shown)
VH: EFQLQQSGPELVKPGASVKMSCKASGYIFTSSIMHWMKQKPGQGLEWIGYIKPYNDGTKYNEKFKGKATLTSDKSSSTANMELNSLTSEDSAVYYCAREGGNDYYDTMDYWGQGTSVTVSS
VL: DIKMTQSPSSMYASLGERVTITCKASQDINSYLSWFQQKPGKSPKTLIYRVNRLVDGVPSRFSGSGSGQDYSLTISSLEYEDMGIYYCLQYDAFPYTFGGGTKLEIKR
notes: also called chimeric CD123-6 antibody
For the molecule B3, the Kd is 0.04 nM and ~0.06 nM in [2]; 0.08 nM in assay [4]. In addition, the “IC50, inhibition of IL3-dependent proliferation of TF-1 cells” value in [3] amounted to 0.03 nM. In addition, the “IC50, inhibition of IL-3 dependent proliferation of TF-1 cells” value in [3] came out at 0.02 nM. Moreover, in assay [9], the “fold difference of Kd” value is at most 2.5 fold.

B4: chCD123-14 (antibody, V domains shown)
VH: EVKLVESGGDLVKPGGSLKLSCAASGFTFSNYAMSWVRQNSEKRLEWVATINSGGSFTYYPDSVKGRFTISRDNAKDSLYLQMSSLNSEDTAMYYCARQSEAYYGYDKRTWFAYWGQGTLVTVSS
VL: DILLTQSPAILSVSPGTRVSFSCRASQSVGTSIHWYQQRPNGFPRLLIKYASESISGIPSRFSGSGSGTDFTLNINSVESEDIADYYCQQSKSWPLTFGAGTKLELKR
notes: also called chimeric CD123-14 antibody
On to B4, for which the Kd in [2] was determined as 0.2 nM. Moreover, the “IC50, inhibition of IL3-dependent proliferation of TF-1 cells” value in assay [3] was found to be 0.05 nM. The EC50 in [10] is 0.0479 nM; in [6] it was 0.0655 nM. Further, in [11], the “fold difference of Kd” value was at most 2.5 fold.

B5: huCD123-6Gv4.7S3 (antibody, human IgG1, kappa)
heavy: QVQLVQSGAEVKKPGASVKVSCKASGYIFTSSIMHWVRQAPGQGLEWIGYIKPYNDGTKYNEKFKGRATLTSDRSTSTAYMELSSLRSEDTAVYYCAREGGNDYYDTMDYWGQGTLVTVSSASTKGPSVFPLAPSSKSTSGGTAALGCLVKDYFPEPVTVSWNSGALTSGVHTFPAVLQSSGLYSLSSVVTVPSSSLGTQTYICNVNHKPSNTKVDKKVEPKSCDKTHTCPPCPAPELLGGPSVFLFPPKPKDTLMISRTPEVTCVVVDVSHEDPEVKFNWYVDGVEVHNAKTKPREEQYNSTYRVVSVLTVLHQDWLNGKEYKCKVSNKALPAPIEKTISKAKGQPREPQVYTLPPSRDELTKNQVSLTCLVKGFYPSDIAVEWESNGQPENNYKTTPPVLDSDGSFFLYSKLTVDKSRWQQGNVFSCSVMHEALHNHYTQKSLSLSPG
light: SIQMTQSPSSLSASVGDRVTITCRASQDINSYLSWFQQKPGKAPKTLIYRVNRLVDGVPSRFSGSGSGNDYTLTISSLQPEDFATYYCLQYDAFPYTFGQGTKVEIKRTVAAPSVFIFPPSDEQLKSGTASVVCLLNNFYPREAKVQWKVDNALQSGNSQESVTEQDSKDSTYSLSSTLTLSKADYEKHKVYACEVTHQGLSSPVTKSFNRGEC
notes: also called huCD123-6Gv4.7 clone (S3); CD123-6G4.7S3
The term EC50 (read off the curve) denotes the concentration needed to bring the measured effect to its halfway point. A low value points to greater potency. As to B5, the Kd in assay [2] was about 0.06 nM. For the same molecule, in assay [3], the “IC50, inhibition of IL-3 dependent proliferation of TF-1 cells” value was 0.02 nM. Also, the “fold higher affinity than the 7G3 antibody” value in assay [12] was at least 30 fold. Besides, the half-maximal effective concentration (EC50 (read off the curve)) in assay [13] is about 0.05 nM.

B6: huCD123-6Gv4.7 (antibody, human IgG1, kappa)
heavy: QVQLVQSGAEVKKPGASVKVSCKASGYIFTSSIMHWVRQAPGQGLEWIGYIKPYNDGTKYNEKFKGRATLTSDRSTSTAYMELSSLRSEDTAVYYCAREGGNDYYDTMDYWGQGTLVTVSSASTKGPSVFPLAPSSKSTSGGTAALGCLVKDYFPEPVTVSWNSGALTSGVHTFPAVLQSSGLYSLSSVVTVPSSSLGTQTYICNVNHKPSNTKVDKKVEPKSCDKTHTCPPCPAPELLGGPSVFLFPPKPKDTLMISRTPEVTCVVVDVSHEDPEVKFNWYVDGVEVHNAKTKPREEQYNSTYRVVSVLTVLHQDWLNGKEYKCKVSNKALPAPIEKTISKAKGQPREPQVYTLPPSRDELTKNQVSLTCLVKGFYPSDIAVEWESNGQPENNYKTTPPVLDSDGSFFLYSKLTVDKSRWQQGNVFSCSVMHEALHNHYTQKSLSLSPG
light: B5 light with S1D
notes: CDR-grafted humanized antibody; also called version 4.7 (VL Gv4 and VH Gv7)
Regarding B6, the EC50 in [5] came to 0.145 nM; in assay [6], 0.106 nM.

B7: huCD123-6Gv4.7S2 (antibody, human IgG1, kappa)
heavy: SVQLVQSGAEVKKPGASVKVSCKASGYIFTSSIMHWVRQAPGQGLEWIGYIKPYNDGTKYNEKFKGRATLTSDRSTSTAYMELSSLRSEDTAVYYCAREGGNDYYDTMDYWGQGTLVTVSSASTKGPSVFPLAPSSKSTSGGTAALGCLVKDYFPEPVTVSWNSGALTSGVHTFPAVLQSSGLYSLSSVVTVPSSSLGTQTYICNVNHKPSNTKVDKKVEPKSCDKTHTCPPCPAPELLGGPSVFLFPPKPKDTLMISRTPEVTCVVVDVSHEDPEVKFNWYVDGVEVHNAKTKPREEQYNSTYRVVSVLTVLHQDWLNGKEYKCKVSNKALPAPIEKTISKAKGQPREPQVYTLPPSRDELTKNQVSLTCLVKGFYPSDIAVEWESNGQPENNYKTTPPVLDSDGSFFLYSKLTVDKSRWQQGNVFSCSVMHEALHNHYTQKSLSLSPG
light: B5 light with S1D
notes: CDR-grafted humanized antibody with an engineered N-terminal Ser on the heavy chain; also called huCD123-6Gv4.7 clone (S2)
As for B7, in assay [2], the Kd is about 0.06 nM. For the same molecule, the “IC50, inhibition of IL-3 dependent proliferation of TF-1 cells” value in [3] was found to be 0.02 nM. Besides, in assay [12], the “fold higher affinity than the 7G3 antibody” value is at least 30 fold.
